System: topoisomerase I
Sequence (chain, as listed by the source): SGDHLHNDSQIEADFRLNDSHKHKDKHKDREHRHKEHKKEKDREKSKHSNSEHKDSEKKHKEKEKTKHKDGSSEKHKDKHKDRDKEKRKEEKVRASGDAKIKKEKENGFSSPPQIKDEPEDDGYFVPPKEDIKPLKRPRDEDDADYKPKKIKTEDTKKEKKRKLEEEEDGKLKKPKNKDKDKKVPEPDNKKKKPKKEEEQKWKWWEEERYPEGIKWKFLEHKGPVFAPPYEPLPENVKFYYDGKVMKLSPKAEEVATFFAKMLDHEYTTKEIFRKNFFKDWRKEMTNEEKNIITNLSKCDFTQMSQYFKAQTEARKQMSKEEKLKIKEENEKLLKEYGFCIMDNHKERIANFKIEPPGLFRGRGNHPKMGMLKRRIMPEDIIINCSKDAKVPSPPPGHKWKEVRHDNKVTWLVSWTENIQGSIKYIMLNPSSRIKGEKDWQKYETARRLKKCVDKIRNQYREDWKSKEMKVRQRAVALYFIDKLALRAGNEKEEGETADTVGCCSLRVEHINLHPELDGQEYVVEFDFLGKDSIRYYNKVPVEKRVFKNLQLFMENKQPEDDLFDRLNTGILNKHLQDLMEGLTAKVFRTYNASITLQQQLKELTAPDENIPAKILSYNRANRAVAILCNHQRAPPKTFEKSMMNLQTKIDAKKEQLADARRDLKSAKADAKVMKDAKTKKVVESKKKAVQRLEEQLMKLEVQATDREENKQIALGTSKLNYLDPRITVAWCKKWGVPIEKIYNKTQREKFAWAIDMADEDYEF

Substance: BRCA1-Flag/BARD1
- in vitro ubiquitination, immunoblot with anti-ubiquitin: showed ubiquitination of topo I by BRCA 1
